According to publication PMC3394733, “Involvement of the Penta-EF-Hand Protein Pef1p in the Ca^2+-Dependent Regulation of COPII Subunit Assembly in Saccharomyces cerevisiae” (PLoS ONE, 2012):
Positions count from the first letter of the chain named.

B1: Sec13/31p complex (complex, S. cerevisiae)
chain 1: MVVIANAHNELIHDAVLDYYGKRLATCSSDKTIKIFEVEGETHKLIDTLTGHEGPVWRVDWAHPKFGTILASCSYDGKVLIWKEENGRWSQIAVHAVHSASVNSVQWAPHEYGPLLLVASSDGKVSVVEFKENGTTSPIIIDAHAIGVNSASWAPATIEEDGEHNGTKESRKFVTGGADNLVKIWKYNSDAQTYVLESTLEGHSDWVRDVAWSPTVLLRSYLASVSQDRTCIIWTQDNEQGPWKKTLLKEEKFPDVLWRASWSLSGNVLALSGGDNKVTLWKENLEGKWEPAGEVHQ
chain 2: MVKLAEFSRTATFAWSHDKIPLLVSGTVSGTVDANFSTDSSLELWSLLAADSEKPIASLQVDSKFNDLDWSHNNKIIAGALDNGSLELYSTNEANNAINSMARFSNHSSSVKTVKFNAKQDNVLASGGNNGEIFIWDMNKCTESPSNYTPLTPGQSMSSVDEVISLAWNQSLAHVFASAGSSNFASIWDLKAKKEVIHLSYTSPNSGIKQQLSVVEWHPKNSTRVATATGSDNDPSILIWDLRNANTPLQTLNQGHQKGILSLDWCHQDEHLLLSSGRDNTVLLWNPESAEQLSQFPARGNWCFKTKFAPEAPDLFACASFDNKIEVQTLQNLTNTLDEQETETKQQESETDFWNNVSREESKEKPTVFHLQAPTWYGEPSPAAHWAFGGKLVQITPDGKGVSITNPKISGLESNTTLSEALKTKDFKPLINQRLVKVIDDVNEEDWNLLEKLSMDGTEEFLKEALAFDNDESDAQDDANNEKEDDGEEFFQQIETNFQPEGDFSLSGNIEQTISKNLVSGNIKSAVKNSLENDLLMEAMVIALDSNNERLKESVKNAYFAKYGSKSSLSRILYSISKREVDDLVENLDVSQWKFISKAIQNLYPNDIAQRNEMLIKLGDRLKENGHRQDSLTLYLAAGSLDKVASIWLSEFPDLEDKLKKDNKTIYEAHSECLTEFIERFTVFSNFINGSSTINNEQLIAKFLEFINLTTSTGNFELATEFLNSLPSDNEEVKTEKARVLIASGKSLPAQNPATATTSKAKYTNAKTNKNVPVLPTPGMPSTTSIPSMQAPFYGMTPGASANALPPKPYVPATTTSAPVHTEGKYAPPSQPSMASPFVNKTNSSTRLNSFAPPPNPYATATVPATNVSTTSIPQNTFAPIQPGMPIMGDYNAQSSSIPSQPPINAVSGQTPHLNRKANDGWNDLPLKVKEKPSRAKAVSVAPPNILSTPTPLNGIPANAASTMPPPPLSRAPSSVSMVSPPPLHKNSRVPSLVATSESPRASISNPYAPPQSSQQFPIGTISTANQTSNTAQVASSNPYAPPPQQRVATPLSGGVPPAPLPKASNPYAPTATTQPNGSSYPPTGPYTNNHTMTSPPPVFNKPPTGPPPISMKKRSNKLASIEQNPSQGATYPPTLSSSASPLQPSQPPTLASQVNTSAENVSHEIPADQQPIVDFLKEELARVTPLTPKEYSKQLKDCDKRLKILFYHLEKQDLLTQPTIDCLHDLVALMKEKKYKEAMVIHANIATNHAQEGGNWLTGVKRLIGIAEATLN
notes: Sec13p, COPII outer coat subunit, S. cerevisiae; Sec31p, COPII outer coat subunit, S. cerevisiae; also called outer COPII coat; source: purified
B2: GST-Pef1p (natural protein, S. cerevisiae, UniProt P53238 1-335, looked up)
chain: MCAKKLKYAAGDDFVRYATPKEAMEETRREFEKEKQRQQQIKVTQAQTPNTRVHSAPIPLQTQYNKNRAENGHHSYGSPQSYSPRHTKTPVDPRYNVIAQKPAGRPIPPAPTHYNNLNTSAQRIASSPPPLIHNQAVPAQLLKKVAPASFDSREDVRDMQVATQLFHNHDVKGKNRLTAEELQNLLQNDDNSHFCISSVDALINLFGASRFGTVNQAEFIALYKRVKSWRKVYVDNDINGSLTISVSEFHNSLQELGYLIPFEVSEKTFDQYAEFINRNGTGKELKFDKFVEALVWLMRLTKLFRKFDTNQEGIATIQYKDFIDATLYLGRFLPH
notes: No removal of GST is described; also called N-terminally GST-fused Pef1p; pMY3; source: E. coli JM109, purified (glutathione-Sepharose, eluted with 10 mM glutathione); not shown: GST, N-terminal, kept
B3: GST-Pef1p-E180/181/248A (natural protein, S. cerevisiae, UniProt P53238 1-335, looked up)
chain: B2 chain with E180A, E181A, E248A
notes: also called pMY14; source: E. coli JM109, purified (glutathione-Sepharose, eluted with 10 mM glutathione); not shown: GST, N-terminal, kept
B4: MBP-Sec31(879–1114) (domain or fragment, S. cerevisiae, UniProt P38968 879-1114, looked up)
chain: APIQPGMPIMGDYNAQSSSIPSQPPINAVSGQTPHLNRKANDGWNDLPLKVKEKPSRAKAVSVAPPNILSTPTPLNGIPANAASTMPPPPLSRAPSSVSMVSPPPLHKNSRVPSLVATSESPRASISNPYAPPQSSQQFPIGTISTANQTSNTAQVASSNPYAPPPQQRVATPLSGGVPPAPLPKASNPYAPTATTQPNGSSYPPTGPYTNNHTMTSPPPVFNKPPTGPPPISMKK
notes: also called proline-rich region of Sec31p; pMY12; source: E. coli C41(DE3), purified (amylose resin, eluted with 30 mM maltose)

Experiments:
Conditions in all cases: both partners purified
[1] = target: T1, Sec23/24p complex (S. cerevisiae, UniProt P15303 1-768; P40482 1-926); assay: light scattering of liposomes; liposomes (100 µg/mL) preloaded with Sar1p (950 nM) and GMP-PNP (0.1 mM); Sec23/24p (160 nM), then Sec13/31p (260 nM) added; 350 nm, 25°C, 20 mM HEPES-KOH pH 6.8, 160 mM potassium acetate, 1 mM MgCl2; 5 mM EGTA in panel A, none in panel B; with or without GST-Pef1p or its mutant (520 nM)
T1 construct: Sec23p, COPII inner coat subunit, GAP for Sar1p, S. cerevisiae; Sec24p, COPII inner coat subunit, S. cerevisiae; also called inner COPII coat
T1 sequence (P15303 whole entry, chain 1 of 2): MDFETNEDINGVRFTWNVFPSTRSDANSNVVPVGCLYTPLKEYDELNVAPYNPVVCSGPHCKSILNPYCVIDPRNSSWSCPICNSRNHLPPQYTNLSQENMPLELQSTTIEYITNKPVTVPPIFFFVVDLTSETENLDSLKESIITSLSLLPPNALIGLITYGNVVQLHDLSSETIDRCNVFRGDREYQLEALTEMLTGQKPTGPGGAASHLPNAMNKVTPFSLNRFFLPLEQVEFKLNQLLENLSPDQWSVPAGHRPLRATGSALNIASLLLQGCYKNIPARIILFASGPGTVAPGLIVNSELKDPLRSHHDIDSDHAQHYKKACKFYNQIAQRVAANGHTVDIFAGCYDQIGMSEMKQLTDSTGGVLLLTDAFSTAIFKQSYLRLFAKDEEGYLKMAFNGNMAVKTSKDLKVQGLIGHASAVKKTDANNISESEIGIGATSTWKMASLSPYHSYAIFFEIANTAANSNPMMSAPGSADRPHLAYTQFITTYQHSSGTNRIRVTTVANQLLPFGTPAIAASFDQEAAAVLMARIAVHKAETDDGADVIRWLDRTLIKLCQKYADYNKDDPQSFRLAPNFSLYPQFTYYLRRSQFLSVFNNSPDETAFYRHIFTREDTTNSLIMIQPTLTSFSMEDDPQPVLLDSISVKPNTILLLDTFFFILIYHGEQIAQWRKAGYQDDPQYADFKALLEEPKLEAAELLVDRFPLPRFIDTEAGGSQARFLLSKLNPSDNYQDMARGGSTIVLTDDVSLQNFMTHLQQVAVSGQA
T1 sequence (P40482 whole entry, chain 2 of 2): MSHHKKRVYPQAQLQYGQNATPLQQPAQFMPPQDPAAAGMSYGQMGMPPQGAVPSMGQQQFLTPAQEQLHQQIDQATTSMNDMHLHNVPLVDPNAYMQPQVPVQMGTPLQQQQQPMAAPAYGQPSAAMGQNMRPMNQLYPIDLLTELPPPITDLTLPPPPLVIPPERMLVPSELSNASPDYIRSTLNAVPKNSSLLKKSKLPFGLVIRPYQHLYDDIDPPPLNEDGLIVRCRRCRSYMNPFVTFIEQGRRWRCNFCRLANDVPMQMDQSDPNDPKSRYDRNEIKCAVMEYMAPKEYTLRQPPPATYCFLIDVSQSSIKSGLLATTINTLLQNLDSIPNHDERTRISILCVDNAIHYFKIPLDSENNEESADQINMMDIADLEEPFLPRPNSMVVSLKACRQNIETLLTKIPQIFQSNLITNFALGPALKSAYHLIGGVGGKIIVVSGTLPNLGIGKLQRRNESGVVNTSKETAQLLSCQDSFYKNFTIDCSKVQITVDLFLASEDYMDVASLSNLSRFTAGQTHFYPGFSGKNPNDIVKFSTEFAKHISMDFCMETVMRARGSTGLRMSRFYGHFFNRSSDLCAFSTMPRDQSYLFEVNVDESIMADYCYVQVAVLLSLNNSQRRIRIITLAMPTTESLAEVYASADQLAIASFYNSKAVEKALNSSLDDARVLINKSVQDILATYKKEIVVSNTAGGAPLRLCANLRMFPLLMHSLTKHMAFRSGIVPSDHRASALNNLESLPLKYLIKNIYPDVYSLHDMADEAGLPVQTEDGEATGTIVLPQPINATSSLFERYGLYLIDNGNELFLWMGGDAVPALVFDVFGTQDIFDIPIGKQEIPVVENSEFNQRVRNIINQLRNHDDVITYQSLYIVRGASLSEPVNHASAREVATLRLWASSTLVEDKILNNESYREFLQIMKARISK

[2] = target: B1; assay: pull-down; GST fusion or GST (40 nM) and Sec13/31p (80 nM) with 5 mM EGTA, glutathione-Sepharose beads, 4°C 2 h, 20 mM HEPES-KOH pH 8.0, 160 mM potassium acetate, 0.1% Triton X-100; immunoblot with anti-Sec31p
[3] = target: B2; assay: pull-down; GST-Pef1p or GST (40 nM) and MBP-Sec31p fragment (80 nM), glutathione-Sepharose beads, 4°C 2 h, 20 mM HEPES-KOH pH 8.0, 160 mM potassium acetate, 0.1% Triton X-100; CaCl2 or EGTA not told for this experiment; immunoblot with anti-MBP

binding result [2]	Binder	other results
	B1	binding result [1]: binds
binds	B2	
binds	B3	
	B4	binding result [3]: binds
